B1: FAS-associated death domain protein (Homo sapiens), Q13158 (parent)
chain: MDPFLVLLHSVSSSLSSSELTELKFLCLGRVGKRKLERVQSGLDLFSMLLEQNDLEPGHTELLRELLASLRRHDLLRRVDDFEAGAAAGAAPGEEDLCAAFNVICDNVGKDWRRLARQLKVSDTKIDSIEDRYPRNLTERVRESLRIWKNTEKENATVAHLVGALRSCQMNLVADLVQEVQQARDLQNRSGAMSPMSWNSDASTSEAS

Variants of: B1
Settings: with plk1_human PLK1, P53350
plk1_human PLK1, P53350, sequence (P53350 whole entry): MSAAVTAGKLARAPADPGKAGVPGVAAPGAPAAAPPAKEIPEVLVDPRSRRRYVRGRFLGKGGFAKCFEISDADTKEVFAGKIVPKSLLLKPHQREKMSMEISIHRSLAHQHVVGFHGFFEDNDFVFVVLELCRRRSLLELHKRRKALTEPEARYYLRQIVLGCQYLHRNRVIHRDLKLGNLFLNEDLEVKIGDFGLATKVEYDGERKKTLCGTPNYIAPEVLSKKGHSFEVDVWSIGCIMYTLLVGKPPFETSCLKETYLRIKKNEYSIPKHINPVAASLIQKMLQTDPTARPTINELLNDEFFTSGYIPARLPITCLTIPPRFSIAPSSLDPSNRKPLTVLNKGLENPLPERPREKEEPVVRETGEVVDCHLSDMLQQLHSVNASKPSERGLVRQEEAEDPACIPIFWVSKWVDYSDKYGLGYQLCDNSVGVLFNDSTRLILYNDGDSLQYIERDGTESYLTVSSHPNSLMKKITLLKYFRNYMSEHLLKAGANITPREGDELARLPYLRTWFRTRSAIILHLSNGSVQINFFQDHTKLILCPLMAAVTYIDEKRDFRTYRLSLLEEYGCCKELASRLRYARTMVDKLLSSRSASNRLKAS

Which “effect of a mutation on the interaction” value does the source give for S194A here?
Its value is “disrupting interaction”.
